Target: the molecule itself
Assay: 2D NMR (NOESY/TOCSY) of the self-assembling peptide in 90% H2O-10% D2O
Method: 2D NMR of peptide solution was carried out to study the spatial structure during the assembly process. These NMR spectra were recorded on a Bruker Avance III 600 MHz equipped with a 5 mm Z-gradient SmartProbe BB(F)-H-D (BrukerBioSpin™, Rheinstetten, Germany). The samples were prepared from 10 mg of peptide in a mixture of 900 μL of 1 mM 2,2-Dimethyl-2-silapentane-5-sulfonate (DSS) and 100 μL of D₂O. ¹H-NMR was recorded by collecting 32 scans using excitation sculping with gradients pulse program (zgesgp) for water suppression.¹⁰⁹ COSY and TOCSY were then conducted to see the correlation between hydrogens that were coupled to each other. COSY was performed using a time domain of 4096 (F2)×512 (F1), 16 number of scans, a pulse program of cosydfgpph19, and 3-9-19 pulse sequence for water suppression.¹¹⁰⁻¹¹² For TOCSY, the parameters with time domain of 8192 (F2)×512 (F1), 16 number of scans, a pulse program of dipsi2gpph19, and 3-9-19 pulse sequence for water suppression were set. Finally, the NOESY acquisition was carried out with a time-domain size of 2048 (F2)×512 (F1), 32 scan numbers, a pulse program of noesyesgpph19, a mixing time of 400 ms, and water suppression using 3-9-19 pulse sequence. Broker Topspin 3.5pI7 software was used in all NMR experiments for both data collection and spectral analyses.

B1: Ac-Ile-Val-Phe-Lys-NH2 (IVFK) (peptide)
peptide: Ac-IVFK-NH2
notes: Synthetic self-assembling tetrapeptide; In the NMR experiment it stood at 10 mg in 900 uL of 1 mM DSS plus 100 uL D2O; also called aromatic IVFK
- binding result: binds
